Target: SARS-CoV RBD (residues 306-527 of the spike protein) (SARS-CoV) (UniProt P59594)

**Q.** For CR3022 IgG (antibody), which pseudovirus neutralization assay (SARS-CoV spike on pseudovirus), IC50 is on record?
**A.** The pseudovirus neutralization assay (SARS-CoV spike on pseudovirus), IC50 was 5.2 µg/mL.

Source: paper PMC7744049
